Measurements: patent US20220177579A1 (Memorial Sloan Kettering, published 2022)

Biological target: T1, human CD19 on CD19(+) NALM6 acute lymphoid leukemia cells (human, UniProt P15391 20-556)
T1 sequence: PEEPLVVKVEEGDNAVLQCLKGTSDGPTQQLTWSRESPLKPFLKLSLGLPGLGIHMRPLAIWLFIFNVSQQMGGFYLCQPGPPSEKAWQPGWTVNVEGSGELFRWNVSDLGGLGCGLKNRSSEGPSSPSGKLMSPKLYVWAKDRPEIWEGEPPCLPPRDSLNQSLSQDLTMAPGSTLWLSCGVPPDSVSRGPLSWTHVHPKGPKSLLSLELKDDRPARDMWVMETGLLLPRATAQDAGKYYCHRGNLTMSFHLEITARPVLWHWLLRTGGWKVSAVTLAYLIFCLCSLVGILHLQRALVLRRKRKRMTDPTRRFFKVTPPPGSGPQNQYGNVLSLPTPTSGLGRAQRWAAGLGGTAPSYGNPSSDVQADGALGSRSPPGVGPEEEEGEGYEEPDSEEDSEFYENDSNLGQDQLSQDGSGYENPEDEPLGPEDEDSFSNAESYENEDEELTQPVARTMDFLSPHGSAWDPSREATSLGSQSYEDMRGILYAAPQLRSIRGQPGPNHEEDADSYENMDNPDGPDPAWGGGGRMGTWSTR
Assay: cell-based or functional assay

B1: CD19-BsAb BC250 (hFMC63 VL-2/VH-1b x CD3 IgG-scFv bispecific antibody) (bispecific antibody)
heavy: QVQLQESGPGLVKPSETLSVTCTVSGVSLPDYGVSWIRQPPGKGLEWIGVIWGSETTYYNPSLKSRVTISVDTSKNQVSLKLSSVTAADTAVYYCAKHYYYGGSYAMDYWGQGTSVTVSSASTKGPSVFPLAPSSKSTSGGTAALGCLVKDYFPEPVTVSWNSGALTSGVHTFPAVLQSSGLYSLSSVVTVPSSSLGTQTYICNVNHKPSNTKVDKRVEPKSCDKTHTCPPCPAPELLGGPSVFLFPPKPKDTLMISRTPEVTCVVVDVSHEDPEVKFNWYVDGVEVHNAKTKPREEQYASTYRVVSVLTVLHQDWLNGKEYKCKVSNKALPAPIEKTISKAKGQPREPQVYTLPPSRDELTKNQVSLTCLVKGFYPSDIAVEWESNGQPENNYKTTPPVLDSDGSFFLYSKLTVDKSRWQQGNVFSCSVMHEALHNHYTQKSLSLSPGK
light: DIQMTQSPSSLSASVGDRVTITCQASQDISKYLNWYQQKPGKAVKLLIYHTSRLHSGVPSRFSGSGSGTDYTLTISSLQPEDIATYFCQQGNTLPYTFGGGTKLEITRTVAAPSVFIFPPSDEQLKSGTASVVCLLNNFYPREAKVQWKVDNALQSGNSQESVTEQDSKDSTYSLSSTLTLSKADYEKHKVYACEVTHQGLSSPVTKSFNRGECTSGGGGSGGGGSGGGGSQVQLVQSGGGVVQPGRSLRLSCKASGYTFTRYTMHWVRQAPGKCLEWIGYINPSRGYTNYNQKFKDRFTISRDNSKNTAFLQMDSLRPEDTGVYFCARYYDDHYSLDYWGQGTPVTVSSGGGGSGGGGSGGGGSGGGGSGGGGSGGGGSDIQMTQSPSSLSASVGDRVTITCSASSSVSYMNWYQQTPGKAPKRWIYDTSKLASGVPSRFSGSGSGTDYTFTISSLQPEDIATYYCQQWSSNPFTFGCGTKLQITR
EC50 for cell lysis of NALM6 cells (standard 4-hour 51Cr release assay with activated T cells): 0.042 pM
